Entries after “also recorded” stand apart in the source; their conditions may differ.
Test system: Staphylococcus aureus ATCC 6538
Experiment: Modified ASTM E2315 test of low pH therapeutic with AMPs, acid neutralized after one minute
Type: cell-based
Source text: Since the reaction speed of the two different MOAs are different, a modified test protocol was developed, which is summarized below. • a. […] Heretofore, it has been believed that AMPs are unstable in low pH environments. Mixture of dry powder immediately prior to use is believed to address concerns regarding minimization of in vitro stability. • b. The prepared AMP solution was then mixed with the bacteria containing media. After one minute the acid solution was neutralized. This simulates the short antimicrobial period for the elevated proton concentration in vivo. The bacteria population was measured to determine efficacy after one minute. • c. The AMPs retained in the solution are not expected to stop their antimicrobial activity after acid neutralization, so a second bacteria population measurement was made after 24 hours. [table]

B1: lactoferrin (protein, UniProt P02788 20-710, looked up)
Lactotransferrin: GRRRSVQWCAVSQPEATKCFQWQRNMRKVRGPPVSCIKRDSPIQCIQAIAENRADAVTLDGGFIYEAGLAPYKLRPVAAEVYGTERQPRTHYYAVAVVKKGGSFQLNELQGLKSCHTGLRRTAGWNVPIGTLRPFLNWTGPPEPIEAAVARFFSASCVPGADKGQFPNLCRLCAGTGENKCAFSSQEPYFSYSGAFKCLRDGAGDVAFIRESTVFEDLSDEAERDEYELLCPDNTRKPVDKFKDCHLARVPSHAVVARSVNGKEDAIWNLLRQAQEKFGKDKSPKFQLFGSPSGQKDLLFKDSAIGFSRVPPRIDSGLYLGSGYFTAIQNLRKSEEEVAARRARVVWCAVGEQELRKCNQWSGLSEGSVTCSSASTTEDCIALVLKGEADAMSLDGGYVYTAGKCGLVPVLAENYKSQQSSDPDPNCVDRPVEGYLAVAVVRRSDTSLTWNSVKGKKSCHTAVDRTAGWNIPMGLLFNQTGSCKFDEYFSQSCAPGSDPRSNLCALCIGDEQGENKCVPNSNERYYGYTGAFRCLAENAGDVAFVKDVTVLQNTDGNNNEAWAKDLKLADFALLCLDGKRKPVTEARSCHLAMAPNHAVVSRMDKVERLKQVLLHQQAKFGRNGSDCPDKFCLFQSETKNLLFNDNTECLARLHGKTTYEKYLGPQYVAGITNLKKCSTSPLLEACEFLRK
1-min Efficacy (log) (bacteria population after one minute, then acid neutralized, no soiling, single-replicant): 0.05 log | Efficacy on S. aureus, conclusion in words (comparison of Table 3 examples): minimal efficacy; also recorded: not effective | 24-hour Efficacy (log) (second bacteria population measurement after 24 hours, acid neutralized after one minute): 0.16 log

— US20240000899A1, “THERAPEUTIC USEFUL AGAINST ANTIMICROBIAL RESISTANT AGENTS” (priority 2022, published 2024)
